T1: IL-23 (HEK293E-derived) (human, UniProt P29460 23-328; Q9NPF7 20-189)
T1 sequence 1: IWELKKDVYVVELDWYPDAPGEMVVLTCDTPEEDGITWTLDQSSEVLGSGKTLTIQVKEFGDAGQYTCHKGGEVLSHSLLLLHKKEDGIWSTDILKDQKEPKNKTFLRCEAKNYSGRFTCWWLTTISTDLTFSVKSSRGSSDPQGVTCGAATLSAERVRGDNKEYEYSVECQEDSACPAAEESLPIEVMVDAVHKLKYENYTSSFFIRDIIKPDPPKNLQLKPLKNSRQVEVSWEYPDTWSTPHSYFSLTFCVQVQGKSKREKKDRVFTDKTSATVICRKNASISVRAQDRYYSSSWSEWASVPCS
T1 sequence 2: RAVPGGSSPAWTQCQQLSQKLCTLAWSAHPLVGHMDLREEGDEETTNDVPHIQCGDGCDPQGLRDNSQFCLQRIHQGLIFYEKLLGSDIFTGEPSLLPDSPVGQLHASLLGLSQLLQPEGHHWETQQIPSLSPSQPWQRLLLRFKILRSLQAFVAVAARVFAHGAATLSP


Molecular target: T1, IL-23 (HEK293E-derived)
Assay: SPR (Biacore), antibody supernatant captured on Protein A, IL-23 at 5 ug/ml as analyte
Description: As a result of the humanization processes 22 humanized antibodies were produced and tested for their ability to bind human IL-23 (Table 4). Briefly, 2 mL transfections of the 22 humanized antibodies were screened for antibody expression level and binding activity via SPR. Protein A was immobilized onto FC1 and FC2 (or alternatively FC3 and FC4) of a CM5 research grade sensor chip using amine coupling, giving approximately 3000 RU. FC1 was used as a blank throughout the experiments. The experiments were run in HBS-P buffer (SPR). Antibody-containing cell culture supernatants were diluted in 10× HBS-P buffer at a ratio of 9:1. The diluted antibody was injected over FC2 at a flow rate of 20 μl/min. IL-23 (HEK293E-derived) was passed over the surface of FC1 and FC2 at a concentrations of 5 μg/ml as a kinetic injection with 5 min dissociation time across both
FC. Regeneration of the surface was performed using 10 mM Glycine, pH 1.5. The sensorgram data from FC2 were subtracted from FC1 and a buffer only control. […] The Sequence IDs of the variable heavy and light chains for each antibody are given in the Table 4 along with kd (off-rates) of selected tested antibodies.

Row | Binder | koff [s⁻¹]
1 | 16-12 (antibody, human IgG1, kappa, V domains shown, Humanized form of E11E7; also called humanized antibody 16-12) VH: QVQLQESGPGLVKPSQTLSLTCTVSGFSLISYNVHWIRQPPGKGLEWIGVIWTGGSTDYNSVLKSRVTMSRDTSKNQFSLKVNSVTAADTAVYYCARDKYGLFPGYFDYWGQGTLVTVSS VL: EIVMTQSPATLSLSPGERATLSCKPSQSLLSSGNRKNYLAWYQQKPGQAPRLLIYYASTRQSGIPARFSGSGSGTDFTLTISSLEPEDFAVYYCLQHFNYPWTFGGGTKAEIKR | 0.000224
2 | 11-23 (antibody, human IgG1, kappa, V domains shown, Humanized form of E11E7; also called humanized antibody 11-23) VH: QVQLQESGPGLVKPSETLSLTCTVSGGSISSYNVHWIRQPPGKGLEWIGVIWTGGSTDYNPSLKSRVTISRDTSKNQFSLKLSSVTAADTAVYYCARDKYGLFPGYFDYWGQGTLVTVSS VL: DIVMTQTPLSLPVTPGEPASISCKPSQSLLSSGNRKNYLAWYLQKPGQSPQLLIYYASTRQSGVPDRFSGSGSGTDFTLKISRVEAEDVGVYYCLQHFNYPWTFGQGTKLEIKR | 0.00462
3 | 11-22 (antibody, human IgG1, kappa, V domains shown, Humanized form of E11E7; also called humanized antibody 11-22) VH: QVQLQESGPGLVKPSETLSLTCTVSGGSISSYNVHWIRQPPGKGLEWIGVIWTGGSTDYNPSLKSRVTISRDTSKNQFSLKLSSVTAADTAVYYCARDKYGLFPGYFDYWGQGTLVTVSS VL: DIVMTQSPDSLAVSLGERATINCKPSQSLLSSGNRKNYLAWYQQKPGQPPKLLIYYASTRQSGVPDRFSGSGSGTDFTLTISSLQAEDVAVYYCLQHFNYPWTFGQGTKLEIKR | 0.00121
4 | 9-22 (antibody, human IgG1, kappa, V domains shown, Humanized form of E11E7; also called humanized antibody 9-22) VH: QVQLQESGPGLVKPSETLSLTCTVSGFSLISYNVHWIRQPPGKGLEWIGVIWTGGSTDYNPSLKSRVTISVDTSKNQFSLKLSSVTAADTAVYYCARDKYGLFPGYFDYWGQGTLVTVSS VL: DIVMTQSPDSLAVSLGERATINCKPSQSLLSSGNRKNYLAWYQQKPGQPPKLLIYYASTRQSGVPDRFSGSGSGTDFTLTISSLQAEDVAVYYCLQHFNYPWTFGQGTKLEIKR | 0.000198
5 | 6-23 (antibody, human IgG1, kappa, V domains shown, Humanized form of E11E7; also called humanized antibody 6-23) VH: QVQLQESGPGLVKPSETLSLTCTVSGFSISSYNVHWIRQPPGKGLEWIGVIWTGGSTDYNPSLKSRVTISRDTSKNQFSLKLSSVTAADTAVYYCARDKYGLFPGYFDYWGQGTLVTVSS VL: DIVMTQTPLSLPVTPGEPASISCKPSQSLLSSGNRKNYLAWYLQKPGQSPQLLIYYASTRQSGVPDRFSGSGSGTDFTLKISRVEAEDVGVYYCLQHFNYPWTFGQGTKLEIKR | 0.000566
6 | 5-23 (antibody, human IgG1, kappa, V domains shown, Humanized form of E11E7; also called humanized antibody 5-23) VH: QVQLQESGPGLVKPSETLSLTCTVSGGSIISYNVHWIRQPPGKGLEWIGVIWTGGSTDYNPSLKSRVTISRDTSKNQFSLKLSSVTAADTAVYYCARDKYGLFPGYFDYWGQGTLVTVSS VL: DIVMTQTPLSLPVTPGEPASISCKPSQSLLSSGNRKNYLAWYLQKPGQSPQLLIYYASTRQSGVPDRFSGSGSGTDFTLKISRVEAEDVGVYYCLQHFNYPWTFGQGTKLEIKR | 0.00639
7 | 7-23 (antibody, human IgG1, kappa, V domains shown, Humanized form of E11E7; also called humanized antibody 7-23) VH: QVQLQESGPGLVKPSETLSLTCTVSGGSLSSYNVHWIRQPPGKGLEWIGVIWTGGSTDYNPSLKSRVTISRDTSKNQFSLKLSSVTAADTAVYYCARDKYGLFPGYFDYWGQGTLVTVSS VL: DIVMTQTPLSLPVTPGEPASISCKPSQSLLSSGNRKNYLAWYLQKPGQSPQLLIYYASTRQSGVPDRFSGSGSGTDFTLKISRVEAEDVGVYYCLQHFNYPWTFGQGTKLEIKR | 0.00391
8 | 5-22 (antibody, human IgG1, kappa, V domains shown, Humanized form of E11E7; also called humanized antibody 5-22) VH: QVQLQESGPGLVKPSETLSLTCTVSGGSIISYNVHWIRQPPGKGLEWIGVIWTGGSTDYNPSLKSRVTISRDTSKNQFSLKLSSVTAADTAVYYCARDKYGLFPGYFDYWGQGTLVTVSS VL: DIVMTQSPDSLAVSLGERATINCKPSQSLLSSGNRKNYLAWYQQKPGQPPKLLIYYASTRQSGVPDRFSGSGSGTDFTLTISSLQAEDVAVYYCLQHFNYPWTFGQGTKLEIKR | 0.00198
9 | 7-22 (antibody, human IgG1, kappa, V domains shown, Humanized form of E11E7; also called humanized antibody 7-22) VH: QVQLQESGPGLVKPSETLSLTCTVSGGSLSSYNVHWIRQPPGKGLEWIGVIWTGGSTDYNPSLKSRVTISRDTSKNQFSLKLSSVTAADTAVYYCARDKYGLFPGYFDYWGQGTLVTVSS VL: DIVMTQSPDSLAVSLGERATINCKPSQSLLSSGNRKNYLAWYQQKPGQPPKLLIYYASTRQSGVPDRFSGSGSGTDFTLTISSLQAEDVAVYYCLQHFNYPWTFGQGTKLEIKR | 0.00102
10 | 8-23 (antibody, human IgG1, kappa, V domains shown, Humanized form of E11E7; also called humanized antibody 8-23) VH: QVQLQESGPGLVKPSETLSLTCTVSGFSLISYNVHWIRQPPGKGLEWIGVIWTGGSTDYNPSLKSRVTISRDTSKNQFSLKLSSVTAADTAVYYCARDKYGLFPGYFDYWGQGTLVTVSS VL: DIVMTQTPLSLPVTPGEPASISCKPSQSLLSSGNRKNYLAWYLQKPGQSPQLLIYYASTRQSGVPDRFSGSGSGTDFTLKISRVEAEDVGVYYCLQHFNYPWTFGQGTKLEIKR | 0.000285

Other lines, results leading:

Row | koff [s⁻¹] | Binder
11 | 0.00133 | 18-4 (antibody, human IgG1, kappa, V domains shown, Humanized form of E11E7; also called humanized antibody 18-4) VH: EVQLQQWGAGLLKPSETLSLTCAVYGGSFSSYNVHWIRQPPGKGLEWIGVIWTGGSTDYNSVLKSRVTISVDTSKNQFSLKLSSVTAADTAVYYCARDKYGLFPGYFDYWGQGTLVTVSS VL: EIVLTQSPATLSLSPGERATLSCKPSQSLLSSGNRKNYLAWYQQKPGQAPRLLIYYASTRQSGIPDRFSGSGSGTDFTLTISRLEPEDFAVYYCLQHFNYPWTFGGGTKVEIKR
12 | 0.00349 | 14-12 (antibody, human IgG1, kappa, V domains shown, Humanized form of E11E7; also called humanized antibody 14-12) VH: QVQLQESGPGLVKPSQTLSLTCTVSGGSISSYNVHWIRQPPGKGLEWIGVIWTGGSTDYNSVLKSRVTMSRDTSKNQFSLKVNSVTAADTAVYYCARDKYGLFPGYFDYWGQGTLVTVSS VL: EIVMTQSPATLSLSPGERATLSCKPSQSLLSSGNRKNYLAWYQQKPGQAPRLLIYYASTRQSGIPARFSGSGSGTDFTLTISSLEPEDFAVYYCLQHFNYPWTFGGGTKAEIKR
13 | 0.006 | 15-12 (antibody, human IgG1, kappa, V domains shown, Humanized form of E11E7; also called humanized antibody 15-12) VH: QVQLQESGPGLVKPSQTLSLTCTVSGGSISSYNVHWIRQPPGKGLEWIGVIWTGGSTDYNSVLKSRVTMSVDTSKNQFSLKVNSVTAADTAVYYCARDKYGLFPGYFDYWGQGTLVTVSS VL: EIVMTQSPATLSLSPGERATLSCKPSQSLLSSGNRKNYLAWYQQKPGQAPRLLIYYASTRQSGIPARFSGSGSGTDFTLTISSLEPEDFAVYYCLQHFNYPWTFGGGTKAEIKR
14 | 0.000855 | 13-12 (antibody, human IgG1, kappa, V domains shown, Humanized form of E11E7; also called humanized antibody 13-12) VH: QVQLQESGPGLVKPSQTLSLTCTVSGFSLISYNVHWIRQPPGKGLEWIGVIWTGGSTDYNSVLKSRVTMSVDTSKNQFSLKVNSVTAADTAVYYCARDKYGLFPGYFDYWGQGTLVTVSS VL: EIVMTQSPATLSLSPGERATLSCKPSQSLLSSGNRKNYLAWYQQKPGQAPRLLIYYASTRQSGIPARFSGSGSGTDFTLTISSLEPEDFAVYYCLQHFNYPWTFGGGTKAEIKR
15 | 0.00056 | 9-23 (antibody, human IgG1, kappa, V domains shown, Humanized form of E11E7; also called humanized antibody 9-23) VH: QVQLQESGPGLVKPSETLSLTCTVSGFSLISYNVHWIRQPPGKGLEWIGVIWTGGSTDYNPSLKSRVTISVDTSKNQFSLKLSSVTAADTAVYYCARDKYGLFPGYFDYWGQGTLVTVSS VL: DIVMTQTPLSLPVTPGEPASISCKPSQSLLSSGNRKNYLAWYLQKPGQSPQLLIYYASTRQSGVPDRFSGSGSGTDFTLKISRVEAEDVGVYYCLQHFNYPWTFGQGTKLEIKR
16 | 0.013 | 10-23 (antibody, human IgG1, kappa, V domains shown, Humanized form of E11E7; also called humanized antibody 10-23) VH: QVQLQESGPGLVKPSETLSLTCTVSGGSISSYNVHWIRQPPGKGLEWIGVIWTGGSTDYNPSLKSRVTISVDTSKNQFSLKLSSVTAADTAVYYCARDKYGLFPGYFDYWGQGTLVTVSS VL: DIVMTQTPLSLPVTPGEPASISCKPSQSLLSSGNRKNYLAWYLQKPGQSPQLLIYYASTRQSGVPDRFSGSGSGTDFTLKISRVEAEDVGVYYCLQHFNYPWTFGQGTKLEIKR
17 | 0.00313 | 10-22 (antibody, human IgG1, kappa, V domains shown, Humanized form of E11E7; also called humanized antibody 10-22) VH: QVQLQESGPGLVKPSETLSLTCTVSGGSISSYNVHWIRQPPGKGLEWIGVIWTGGSTDYNPSLKSRVTISVDTSKNQFSLKLSSVTAADTAVYYCARDKYGLFPGYFDYWGQGTLVTVSS VL: DIVMTQSPDSLAVSLGERATINCKPSQSLLSSGNRKNYLAWYQQKPGQPPKLLIYYASTRQSGVPDRFSGSGSGTDFTLTISSLQAEDVAVYYCLQHFNYPWTFGQGTKLEIKR
